Data set [1] relates to Purα (PURA). The data set is described as follows: EMSA. Conditions: unit not stated, densitometry. In general terms: In EMSA bound probe runs differently from free probe, usually more slowly.
Data set [2] relates to T1, TZIP (synthetic).
T1 sequence: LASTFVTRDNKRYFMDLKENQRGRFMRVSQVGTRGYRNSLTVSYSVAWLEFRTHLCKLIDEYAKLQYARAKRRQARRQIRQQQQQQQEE
The data set is described as follows: EMSA. The conditions noted are these: unit not stated, densitometry.

In US20160052979 one finds Kd data, which are given here for two substances.

Usually Kd stands for the free concentration of one partner at which half of the binding sites on the other are occupied at equilibrium, for simple one-to-one binding.

Consider “FXS ssDNA (FMR1 G-rich trinucleotide expanded repeat)”, for which the Kd stood at 1.9 nM in data set [1] (printed 1.9×109, exponent sign lost) and 0.95 nM in data set [2] (printed 9.5×1010, exponent sign lost, TZIP stimulates Purα binding).
As to “ALS ssDNA (C9ORF72 GGGGCC hexanucleotide repeat)”, the Kd amounted to 16 nM in data set [1] (5 mM DTT, 5 mM EDTA, 0.5% Tween 20); 0.55 nM in data set [2] (printed 5.5×1010, exponent sign lost, 5 mM DTT, 5 mM EDTA, 0.5% Tween 20, TZIP alters Purα shift and stimulates …).
